Positions count from the first letter of the chain named.
B1: EFR3A (721 to 791) (domain or fragment, human, UniProt Q14156 721-791, looked up)
chain: SNTEEITFEALKKAIDTSGMEEQEKEKRRLVIEKFQKAPFEEIAAQCESKANLLHDRLAQILELTIRPPPS
notes: EFR3A, human, residues 721 to 791; No tag cleavage is described for this protein; it was eluted from StrepTrap with desthiobiotin; also called EFR3A C terminus; EFR3A C terminal fragment; source: E. coli BL21 DE3 C41, purified (HisTrap, StrepTrap, SEC); not shown: His10, N-terminal, kept
B2: EFR3A (721 to 791) I763A (domain or fragment, human, UniProt Q14156 721-791, looked up)
chain: B1 chain with I43A
notes: EFR3A, human, residues 721 to 791; source: E. coli BL21 DE3 C41, purified (HisTrap, StrepTrap, SEC); not shown: His10, N-terminal, kept
B3: EFR3A (721 to 791) K732E (domain or fragment, human, UniProt Q14156 721-791, looked up)
chain: B1 chain with K12E
notes: as for B2
B4: His-MBP-EFR3A (721 to 791) (domain or fragment, human, UniProt Q14156 721-791, looked up)
chain: B1 chain
notes: source: E. coli BL21 DE3 C41, purified (HisTrap, StrepTrap, SEC); not shown: MBP, N-terminal, kept; His10, N-terminal, kept
B5: EFR3A (721 to 791) F728A (domain or fragment, human, UniProt Q14156 721-791, looked up)
chain: B1 chain with F8A
notes: as for B2
B6: EFR3A (721 to 791) A734R (domain or fragment, human, UniProt Q14156 721-791, looked up)
chain: B1 chain with A14R
notes: as for B2

Legend:
Conditions in all cases: both partners purified
[1] = biological target: T1, PI4KA/TTC7B/FAM126A ΔC (PI4KA complex) (human, UniProt P42356 1-2102; Q86TV6 1-843; Q9BYI3 1-308); test: SEC; Superose 6 Increase in 150 mM NaCl, 20 mM imidazole pH 7.0, 5% glycerol, 0.5 mM TCEP; 7.19 uM PI4KA complex with 61.8 uM EFR3A, or 6.78 uM TTC7B-FAM126A with 102.3 uM EFR3A; peaks checked by SDS-PAGE
T1 construct: phosphatidylinositol 4 kinase III alpha (PI4KA), human, full length; TTC7B, human, full length; FAM126A, human, residues 1 to 308 (lacks the disordered C terminus); Dimer of heterotrimers; A His-Strep tag was cleaved with TEV protease; also called PI4KA-TTC7B-FAM126A (1 to 308); PI4KA-TTC7B-FAM126A complex; source: Sf9 (MultiBac baculovirus), co-expressed, purified (HisTrap, StrepTrap, TEV …)

[2] = biological target: T2, TTC7B-FAM126A (1 to 308) (human, UniProt Q86TV6 1-843; Q9BYI3 1-308); test: BLI; His-EFR3A (wild type or mutant) at 200 nM loaded on anti-penta-His tips, dipped in TTC7B-FAM126A (wild type or mutant) at 500 nM; 25°C, 20 mM HEPES pH 7.5, 150 mM NaCl, 0.01% BSA, 0.002% Tween-20; maximum response compared with wild type
T2 construct: N-terminal His10-2x Strep-TEV tag from the pOPT vector, cleaved with TEV; also called TTC7B-FAM126A ΔC; TTC7B-FAM126A dimer; source: E. coli BL21 DE3 C41, co-expressed, purified (HisTrap, StrepTrap, TEV cleavage, SEC)

[3] = biological target: T2, TTC7B-FAM126A (1 to 308); test: BLI; His-MBP-EFR3A (721 to 791) at 200 nM loaded on anti-penta-His tips, TTC7B-FAM126A titrated; His-MBP responses subtracted; 25°C, 20 mM HEPES pH 7.5, 150 mM NaCl, 0.01% BSA, 0.002% Tween-20; KD by one site specific nonlinear regression of the response against concentration

| Binder | binding result [2] | also measured |
| --- | --- | --- |
| B1 |  | binding result [1]: binds |
| B2 | binds |  |
| B3 | binds |  |
| B4 |  | Kd [3]: ~23.5 nM |
| B5 | binds |  |
| B6 | binds |  |
